Data published in US20210330742A1 (RUN X, published 2021).

Target: CDK4 (UniProt P11802 2-303)
Experiment: co-IP and immunoblot, time course after serum stimulation
Method: FIG. 2a is a diagram confirming that E2F1 was combined with RUNX3 by measuring the time-dependent formation of BRD2-RUNX3, E2F1-RUNX3, CDK4-RUNX3, Cyclin D1-RUNX3, HDAC4-RUNX3, p16INK4a-CDK4, p21-CDK4, Cyclin D1-CDK4 and HDAC4-CDK4 complexes by immunoprecipitation (IP) and immunoblotting (IB), and the time-dependent phosphorylation of pRB (at Ser-795) and ERK1/2 by immunoblotting (IB).
Transient transfection was performed in all cell lines using lipofectamine plus reagent and lipofectamine (Invitrogen). Cell lysates were incubated with an appropriate monoclonal or polyclonal antibody (2 μg of antibody/500 μg of lysate sample) at 4° C. for 3 hours, followed by incubation with protein G-Sepharose beads (Amersham Pharmacia Biotech, Piscataway, NJ, USA). For the detection of endogenous proteins at 4° C. for 1 hour, the lysate was incubated with an appropriate monoclonal or polyclonal antibody (1:1000-1:3000) at 4° C. for 6 to 12 hours, and then protein G-Sepharose beads (Amersham Pharmacia Biotech) were […] at 4° C. for 3 hours. The immune precipitate was […] on an SDS-polyacrylamide gel electrophoresis (SDS-PAGE) gel and transferred to a PVDF membrane (Millipore, Billerica, Mass., USA). […]

Chain of CDK4 (P11802 2-303 limits assumed): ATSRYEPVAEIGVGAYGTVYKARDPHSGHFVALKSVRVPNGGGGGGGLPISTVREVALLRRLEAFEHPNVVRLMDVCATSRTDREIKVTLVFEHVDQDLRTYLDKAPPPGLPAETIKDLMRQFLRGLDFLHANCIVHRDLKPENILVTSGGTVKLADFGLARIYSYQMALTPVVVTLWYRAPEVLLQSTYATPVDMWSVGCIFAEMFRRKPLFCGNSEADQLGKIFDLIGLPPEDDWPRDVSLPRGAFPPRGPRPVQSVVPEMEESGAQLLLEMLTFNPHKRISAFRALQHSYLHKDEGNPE

- binding result: binds
B1: p16INK4a (other, UniProt P42771 1-156, looked up)
chain: MEPAAGSSMEPSADWLATAAARGRVEEVRALLEAGALPNAPNSYGRRPIQVMMMGSARVAELLLLHGAEPNCADPATLTRPVHDAAREGFLDTLVVLHRAGARLDVRDAWGRLPVDLAEELGHRDVARYLRAAAGGTRGSNHARIDAAEGPSDIPD
